From patent publication US6590086
Several values for one entry are separate records, joined by “and”; a condition that tells them apart may be missing. Identical values can stand only once.

B1: RB-H, P06400 2-928 (protein)
chain: PPKTPRKTAATAAAAAAEPPAPPPPPPPEEDPEQDSGPEDLPLVRLEFEETEEPDFTALCQKLKIPDHVRERAWLTWEKVSSVDGVLGGYIQKKKELWGICIFIAAVDLDEMSFTFTELQKNIEISVHKFFNLLKEIDTSTKVDNAMSRLLKKYDVLFALFSKLERTCELIYLTQPSSSISTEINSALVLKVSWITFLLAKGEVLQMEDDLVISFQLMLCVLDYFIKLSPPMLLKEPYKTAVIPINGSPRTPRRGQNRSARIAKQLENDTRIIEVLCKEHECNIDEVKNVYFKNFIPFMNSLGLVTSNGLPEVENLSKRYEEIYLKNKDLDARLFLDHDKTLQTDSIDSFETQRTPRKSNLDEEVNVIPPHTPVRTVMNTIQQLMMILNSASDQPSENLISYFNNCTVNPKESILKRVKDIGYIFKEKFAKAVGQGCVEIGSQRYKLGVRLYYRVMESMLKSEEERLSIQNFSKLLNDNIFHMSLLACALEVVMATYSRSTSQNLDSGTDLSFPWILNVLNLKAFDFYKVIESFIKAEGNLTREMIKHLERCEHRIMESLAWLSDSPLFDLIKQSKDREGPTDHLESACPLNLPLQNNHTAADMYLSPVRSPKKKGSTTRVNSTANAETQATSAFQTQKPLKSTSLSLFYKKVYRLAYLRLNTLCERLLSEHPELEHIIWTLFQHTLQNEYELMRDRHLDQIMMCSMYGICKVKNIDLKFKIIVTAYKDLPHAVQETFKRVLIKEEEYDSIIVFYNSVFMQRLKTNILQYASTRPPTLSPIPHIPRSPYKFPSSPLRIPGGNIYISPLKSPYKISEGLPTPTKMTPRSRILVSIGESFGTSEKFQKINQMVCNSDRVLKRSAEGSNPPKPLKKLRFDIEGSDEADGSKHLPGESKFQQKLAEMTSTRTRMQKQKMNDSMDTSNKEEK

Tests used:
[1] = molecular target: SV40 large T antigen (SV40) (UniProt P03070); assay: in vitro phosphorylation of the large T:Rb complex, immunoprecipitation with anti-large T antibody
[2] = molecular target: SV40 large T antigen (SV40), P03070; assay: as above; conditions: remark: other sources report otherwise

| Molecule | percent of the Rb protein released from large T by phosphorylation [1] [%] | percent of the Rb protein that remained bound after phosphorylation [2] |
| --- | --- | --- |
| RB-E (from UniProt P06400 2-928) | 70 | – |
| B1 | – | 20% and 30% |
